Measurements from patent publication US20250122306A1 (SUTRO BIOPHARMA, published 2025).

T1: cynomolgus tissue factor (cynomolgus TF, Sino Bio #90885-C08H) (cynomolgus monkey, UniProt P13726 33-251 (human entry))
T1 construct: bought recombinant antigen; also called cyno TF
T1 chain: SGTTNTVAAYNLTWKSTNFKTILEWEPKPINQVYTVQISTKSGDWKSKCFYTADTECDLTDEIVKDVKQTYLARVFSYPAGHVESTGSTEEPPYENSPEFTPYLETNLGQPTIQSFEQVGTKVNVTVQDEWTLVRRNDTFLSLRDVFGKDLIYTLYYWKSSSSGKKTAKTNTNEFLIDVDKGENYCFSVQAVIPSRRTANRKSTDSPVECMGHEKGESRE


Assays:
[1] = target: tissue factor reagent of the Tissue Factor Activity Assay Kit (Abcam #ab108906) (UniProt P13726 33-295, limits assumed); experiment: cell-based or functional assay
[2] = target: T1, cynomolgus tissue factor (cynomolgus …); experiment: Biacore SPR, single-point off-rate (100 nM antigen), antibody captured on anti-Fc
Experimental: (§1) Anti-Fc polyclonal antibodies were immobilized onto a CM4 chip (Cytiva #BR100534) using amine coupling chemistry (Human Antibody Capture Kit, Cytiva #BR100839). The immobilization steps were carried out at a flow rate of 25 μL/min in 1×HBS-EP+buffer (Cytiva #BR100669). The sensor surfaces were activated for 7 min with a mixture of N-hydroxysuccinimide (NHS, 0.05 M) and 1-ethyl-3-(3-dimethylaminopropyl)-carbodiimide (EDC, 0.2 M). The anti-Fc polyclonal antibodies were injected over all 4 flow cells at a concentration of 25 μg/mL in 10 mM sodium acetate, pH 4.5, for 7 min. Ethanolamine (1 M, pH 8.5) was injected for 7 min to block any remaining activated groups.
(§2) Off-rate and kinetic binding experiments were performed at 25° C. using 1×HBS-EP+buffer. Antibodies were injected over the anti-Fc surface at a concentration of 3 μg/mL for 12 seconds at a flow rate of 10 μL/min on flow cells 2, 3 and 4, followed by a buffer wash for 30 seconds at the same flow rate. Single point off-rate analysis was carried out using an antigen concentration of 100 nM. […] After capturing ligand (antibody) on the anti-Fc surface, the analyte (human TF, Lake Pharma; cynomolgus TF, Sino Bio #90885-C08H; mouse TF, R&D Systems #3178-PA) was bound for 180 seconds, followed by a 420 second dissociation phase at a flow rate of […]. Between each ligand capture and analyte binding cycle, regeneration was carried out using 2 injections of 10 mM glycine pH 2.0 for 30 seconds at 30 μL/min, followed by a 30 second buffer wash step.

[3] = target: T2, human tissue factor (human TF, Lake Pharma) (human, UniProt P13726 33-251, limits assumed); experiment: as above
T2 construct: bought recombinant antigen; also called CD142
Experimental: as §1, §2

[4] = target: human tissue factor on cells (human, UniProt P13726 33-295); experiment: cell-based or functional assay

Row | FX conversion (% inhibition), 1000 nM antibody [1] [%] | koff [2] [s⁻¹] | koff [3] [s⁻¹] | Binder | further results
1 | 20 | 0.00195 | 0.000699 | SRP2900-G03 (antibody, IgG1, V domains shown) VH: EVQLVESGGGLVQPGGSLRLSCAASGFTINNYIIHWVRQAPGKGLEWVGYIDPSNGYTYYADSVKGRFTISADTSKNTAYLQMNSLRAEDTAVYYCARDPQSLSSPFDYWGQGTLVTVSS VL: not shown | –
2 | 6.38 | 0.00115 | 0.00204 | SRP2900-F11 (antibody, IgG1, V domains shown) VH: EVQLVESGGGLVQPGGSLRLSCAASGFTISGYIIHWVRQAPGKGLEWVGYIDPSNGYTFYADSVKGRFTISADTSKNTAYLRMNSLRAEDTAVYYCARDDQSLSSPFDYWGQGTLVTVSS VL: not shown | –
3 | 12.1 | 0.000667 | 0.00115 | SRP2900-G05 (antibody, IgG1, V domains shown) VH: EVQLVESGGGLVQPGGLLRLSCAASGFTIAYYVIHWVRQAPGKGLEWVGYIDPSNGYTYYADSVKGRFTISADTSKNTAYLQMNSLRAEDTAVYYCARDDQSLSSPFDYWGQGTLVTVSS VL: not shown | –
4 | 5.23 | 0.00215 | 0.00139 | SRP2900-F09 (antibody, IgG1, V domains shown) VH: EVQLVESGGGLVQPGGSLRLSCAASGFTIHDYVIHWVRQAPGKGLEWVGYIDPSNGYTYYADSVKGRFTISADTSKNTAYLQMNSLRAEDTAVYYCARDDQSISSPLDYWGQGTLVTVSS VL: not shown | –
5 | 1.72 | 0.00184 | 0.00423 | SRP2900-F06 (antibody, IgG1, V domains shown) VH: EVQLVESGGGLVQPGGSLRLSCAASGFTISIYTIHWVRQAPGKGLEWVGYIDPSNGYTYYADSVKGRLTISADTSKNTAYLQMNSLRAEDTAVYYCARDPQSISSPFDYWGQGTLVTVSS VL: not shown | –
6 | 13.5 | 0.0013 | 0.00205 | SRP2900-H07 (antibody, IgG1, V domains shown) VH: EVQLVESGGGLVQPGGSLRLSCAASGFNIAYYTIHWVRQAPGKGLEWVGYIDPSNGYTYYADSVKGRFTISADTSKNTAYLQMNSLRAEDTAVYYCARDPQSFSSPFDYWGQGTLVTVSS VL: not shown | –
7 | -0.11 | 0.00141 | 0.00415 | SRP2900-G02 (antibody, IgG1, V domains shown) VH: EVQLVESGGDLVRPGGSLRLSCAASGFTISYYIIHWVRQAPGKGLEWVGYIDPSNGYTYYADSVKGRFTISADTSKNTAYLQMNSLRAEDTAVYYCARDDQSVSSPFEYWGQGTLVTVSS VL: not shown | –
8 | 4.04 | 0.000648 | 0.00347 | SRP2900-H06 (antibody, IgG1, V domains shown) VH: EVQLVESGGGLVQPGGSLRLSCAASGFTIAAYIIHWVRQAPGKGLEWVGYIDPSNGYTYYADSVKGRFTISADTSKNTAYLQMNSLRAEDTAVYYCARDDQSFSSPFDYWGQGTLVTVSS VL: not shown | –
9 | 9.78 | 0.000665 | 0.00131 | SRP2900-F08 (antibody, IgG1, V domains shown) VH: EVQLVESGGGLVQPGGSLRLSCAASGFTIAYYIIHWVRQAPGKGLEWVGYIDPSNGYTYYADSVKGRFTISADTSKNTAYLQMNSLRAEDTAVYYCARDDQSLSSPFDYWGQGTLVTVSS VL: not shown | –
10 | 4.48 | 0.00584 | 0.00169 | SRP2900-H09 (antibody, IgG1, V domains shown) VH: EVQLVESGGGLVQPGGSLRLSCAASGFTISDYVIHWVRQAPGKGLEWVGYIDPSNGYTYYADSVKGRFTISADTSKNTAYLQMNSLRAEDTAVYYCARDDQSISSPLDYWGQGTLVTVSS VL: not shown | –
11 | -3.63 | 0.000946 | 0.0025 | SRP2900-H11 (antibody, IgG1, V domains shown) VH: EVQLVESGGGLVQPGGSLRLSCAASGFTISSYIIHWVRQAPGKGPEWVGYIDPSNGYTYYADSVKGRFTISADTSKNTAYLQMNSLRAEDTAVYYCARDPQTLTSPFDYWGQGTLVTVSS VL: not shown | –

More lines, now with the values behind:

Row | Binder | FX conversion (% inhibition), 1000 nM antibody [1] [%] | koff [2] [s⁻¹] | koff [3] [s⁻¹] | further results
12 | SRP2900-C01 (antibody, IgG1, V domains shown) VH: EVQLVESGGGLVQPGGSLRLSCAASGFTIGSYWIHWVRQAPGKGLEWVGYIDPSNGYTYYADSVKGRFTISADTSKNTAYLQMNSLRAEDTAVYYCARADYYYVDEYWDYWGQGTLVTVSS VL: not shown | 16.4 | 0.00118 | 0.00183 | –
13 | SRP2900-A02 (antibody, IgG1, V domains shown) VH: MEVQLVESGGGLVQPGGSLRLSCAASGFTISGYIIHWVRQAPGKGLEWVGYIDPSNGYTYYADSVKGRFTISADTSKNTAYLQMNSLRAEDTAVYYCARDDQSLSSPFDYWGQGTLVTVSS VL: not shown | 0.21 | 0.000761 | 0.00116 | –
14 | SRP2900-F02 (antibody, IgG1, V domains shown) VH: EVQLVESGGGLVQPGGSLRLACAASGFTIGVYIIHWVRQAPGKGLEWVGYIDPSNGYTYYADSVKGRFTISADTSKNTAYLQMNSLRAEDTAVYYCARDDQSVSSPFDYWGQGTLVTVSS VL: not shown | 0.23 | 0.000696 | 0.00274 | –
15 | SRP2900-E06 (antibody, IgG1, V domains shown) VH: EVQLVESGGGLVQPGGSLRLSCAASGFTISGYIIHWVRQAPGKGLEWVGYIDPSNGYTYHADSVKGRFTISADTSKNTAYLQMNSLRAEDTAVYYCARDDQSVSSPFDYWGQGTLVTVSS VL: not shown | 18.7 | 0.000689 | 0.000978 | –
16 | SRP2900-C11 (antibody, IgG1, V domains shown) VH: EVQLVESGGGLVQPGGSLRLSCAASGFTISQYWIHWVRQAPGKGLEWVGYIDPYNGYTYYADSVKGRFTISADTSKNTAYLQMNSLRAEDTAVYYCARDYGSWRIRLDYWGQGTLVTVSS VL: not shown | 12.4 | 0.00257 | 0.000842 | –
17 | SRP2900-E02 (antibody, IgG1, V domains shown) VH: EVQLVESGGGLVQPGGSLRLSCAASGFTISDYVIHWVRQAPGKGLEWVGYIDPSNGYTYYADPVKGRFTISADTSKNTAYLQMNSLRAEDTAVYYCARDPQSFYIAFDYWGQGTLVTVSS VL: not shown | 17.7 | 0.00182 | 0.000528 | –
18 | SRP2900-E07 (antibody, IgG1, V domains shown) VH: EVQLVESGGGLVQPGGSLRLSCAASGFTISQYWIHWVRQAPGKGLEWVGYIDPYNGYTYYADSVKGRFTISADTSKNTAYLQMNSLRAEDTAVYYCARDYGSLRVSLDYWGQGTLVTVSS VL: not shown | 15.6 | 0.00113 | 0.000511 | –
19 | Conjugate 6: 2900-A02 Y180/F241/F404/k42-LP1 (antibody, human IgG1, kappa, pAMF at K42 linked to LP1; pAMF at Y180, F241 and F404 (EU), each linked to LP1 (DBCO-Valcit-pAB-hemiasterlin)) heavy: MEVQLVESGGGLVQPGGSLRLSCAASGFTISGYIIHWVRQAPGKGLEWVGYIDPSNGYTYYADSVKGRFTISADTSKNTAYLQMNSLRAEDTAVYYCARDDQSLSSPFDYWGQGTLVTVSSASTKGPSVFPLAPSSKSTSGGTAALGCLVKDYFPEPVTVSWNSGALTSGVHTFPAVLQSSGLSLSSVVTVPSSSLGTQTYICNVNHKPSNTKVDKKVEPKSCDKTHTCPPCPAPELLGGPSVLFPPKPKDTLMISRTPEVTCVVVDVSHEDPEVKFNWYVDGVEVHNAKTKPREEQYNSTYRVVSVLTVLHQDWLNGKEYKCKVSNKALPAPIEKTISKAKGQPREPQVYTLPPSREEMTKNQVSLTCLVKGFYPSDIAVEWESNGQPENNYKTTPPVLDSDGSFLYSKLTVDKSRWQQGNVFSCSVMHEALHNHYTQKSLSLSPGK light: MDIQMTQSPSSLSASVGDRVTITCRASQDVNTAVAWYQQKPGAPKLLIYSASFLYSGVPSRFSGSRSGTDFTLTISSLQPEDFATYYCQQHYTTPPTFGQGTKVEIKRTVAAPSVFIFPPSDEQLKSGTASVVCLLNNFYPREAKVQWKVDNALQSGNSQESVTEQDSKDSTYSLSSTLTLSKADYEKHKVYACEVTHQGLSSPVTKSFNRGEC | – | – | – | cell killing EC50, HCC1954 (TF+++) [4]: 0.085 nM; cell killing EC50, HCC1954, with 0.5 uM unconjugated mAb 40 [4]: > 100 nM; cell killing EC50, NCI-H292 (TF++++) [4]: 0.044 nM; cell killing EC50, NCI-H292, with 0.5 uM unconjugated mAb 40 [4]: > 100 nM; cell killing EC50, NCI-H1975 (TF++) [4]: ~5 nM; cell killing EC50, NCI-H1975, with 0.5 uM unconjugated mAb 40 [4]: > 100 nM; cell killing Span, HCC1954 (TF+++) [4]: 93%; cell killing Span, NCI-H292 (TF++++) [4]: 86%; cell killing Span, NCI-H1975 (TF++) [4]: 71%
